These results are taken from patent US20110217237A1 (AbbVie / Abbott, published 2011).

For orientation: EC50 means the midpoint of the concentration-response curve. The term Kd denotes the concentration at which binding is half-saturated. In general, koff refers to a measure of how fast the partners let go of each other. Usually kon stands for the second-order rate constant of association. One may read the IC50 as the concentration at which inhibition is half-maximal.

Changes are numbered by the printed parent chain.

First the molecules themselves.
B1: h1A11.11 (antibody, V domains shown)
VH: EVQLVESGGGLVQPGGSLRLSCAASGFTFSNFPMAWVRQAPGKGLEWVATISSSDGTTYYRDSVKGRFTISRDNAKNSLYLQMNSLRAEDTAVYYCSRGYYNSPFAYWGQGTLVTVSS
VL: DIQMTQSPSSLSASVGDRVTITCRASEDIYSNLAWYQQKPGKAPKLLIFDTNNLADGVPSRFSGSGSGTDFTLTISSLQPEDFATYYCQQYNNYPPTFGQGTKLEIKR
notes: humanized IgG; also called VH.1b/VL.1b 1A11
B2: h1A11.12 (antibody, V domains shown)
VH: B1 VH
VL: EIVMTQSPATLSVSPGERATLSCRASEDIYSNLAWYQQKPGQSPRLLIFDTNNLADGVPARFSGSGSGTESTLTISSLQSEDFAVYFCQQYNNYPPTFGQGTKLEIKR
notes: humanized IgG; also called VH.1b/VL.2a 1A11
B3: h1A11.10 (antibody, V domains shown)
VH: B1 VH
VL: B1 VL with A43S, F71S, Y87F
notes: humanized IgG; also called VH.1b/VL.1a 1A11
B4: h1A11.13 (antibody, V domains shown)
VH: B1 VH with A75S, N77S, S78T
VL: B1 VL with F49Y
notes: humanized IgG; also called VH.2a/VL.1 1A11
B5: h1A11.14 (antibody, V domains shown)
VH: B1 VH with A75S, N77S, S78T
VL: B1 VL with A43S, F71S, Y87F
notes: humanized IgG; also called VH.2a/VL.1a 1A11
B6: h1A11.16 (antibody, V domains shown)
VH: B1 VH with A75S, N77S, S78T
VL: B2 VL
notes: humanized IgG; also called VH.2a/VL.2a 1A11
B7: h1A11.15 (antibody, V domains shown)
VH: B1 VH with A75S, N77S, S78T
VL: B1 VL
notes: humanized IgG; also called VH.2a/VL.1b 1A11
B8: h38H12.2 (antibody, V domains shown)
VH: EVQLVESGGGVVQPGRSLRLSCAASGFTFSNYGMYWVRQAPGKGLEWVAFISHGGGITYYRDSVKGRFTISRDNSKNTLYLQMNSLRAEDTAVYYCARLNWELGIDYWGQGTMVTVSS
VL: DIQMTQSPSSLSASVGDRVTITCRASEDIYSNLAWYQKKPGKSPKLLIYAANRLQDGVPSRFSGSGSGTDYTLTISSLQPEDFATYFCLQGSKFPLTFGQGTKLEIKR
notes: humanized IgG; also called VH.1/VL.1a 38H12
B9: h38H12.3 (antibody, V domains shown)
VH: B8 VH
VL: B8 VL with K38Q, S43A, F87Y
notes: humanized IgG; also called VH.1/VL.1b 38H12
B10: h38H12.4 (antibody, V domains shown)
VH: B8 VH
VL: EIVMTQSPATLSVSPGERATLSCRASEDIYSNLAWYQKKPGQSPRLLIYAANRLQDGVPARFSGSGSGTEYTLTISSLQSEDFAVYFCLQGSKFPLTFGQGTKLEIKR
notes: humanized IgG; also called VH.1/VL.2a 38H12
B11: h1A11.B5 (antibody, V domains shown)
VH: B1 VH with S30R, N31Y, A35S, T50S, S53G, T57W, T58A, Y59S, S97A, Y107S
VL: DIQMTQSPSSLSASVGDRVTITCRASQDIWNNLAWYQQKPGKSPKLLIFDTSYLADGVPSRFSGSGSGTDFTLTISSLQPEDFATYYCQQYDWYPPTFGQGTKLEIK
notes: also called h1A11.B5 VH / h1A11.B5 VL

T1 sequence (Q9NR61 27-529 limits assumed): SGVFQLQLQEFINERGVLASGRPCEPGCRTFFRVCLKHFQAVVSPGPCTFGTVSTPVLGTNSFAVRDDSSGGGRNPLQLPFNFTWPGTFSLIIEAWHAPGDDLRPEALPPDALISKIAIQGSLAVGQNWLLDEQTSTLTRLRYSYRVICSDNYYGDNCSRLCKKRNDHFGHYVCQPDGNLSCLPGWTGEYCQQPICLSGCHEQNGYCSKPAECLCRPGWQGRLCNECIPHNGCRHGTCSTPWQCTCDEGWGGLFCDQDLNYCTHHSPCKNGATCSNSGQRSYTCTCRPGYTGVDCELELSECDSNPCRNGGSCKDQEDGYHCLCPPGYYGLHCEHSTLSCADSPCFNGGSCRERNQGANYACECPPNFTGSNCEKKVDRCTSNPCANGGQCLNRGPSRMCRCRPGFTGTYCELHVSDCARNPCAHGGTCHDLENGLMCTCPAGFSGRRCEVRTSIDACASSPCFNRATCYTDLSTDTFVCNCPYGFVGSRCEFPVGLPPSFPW
Chain of human DLL4, full length, on cells (Q9NR61 27-685 limits assumed): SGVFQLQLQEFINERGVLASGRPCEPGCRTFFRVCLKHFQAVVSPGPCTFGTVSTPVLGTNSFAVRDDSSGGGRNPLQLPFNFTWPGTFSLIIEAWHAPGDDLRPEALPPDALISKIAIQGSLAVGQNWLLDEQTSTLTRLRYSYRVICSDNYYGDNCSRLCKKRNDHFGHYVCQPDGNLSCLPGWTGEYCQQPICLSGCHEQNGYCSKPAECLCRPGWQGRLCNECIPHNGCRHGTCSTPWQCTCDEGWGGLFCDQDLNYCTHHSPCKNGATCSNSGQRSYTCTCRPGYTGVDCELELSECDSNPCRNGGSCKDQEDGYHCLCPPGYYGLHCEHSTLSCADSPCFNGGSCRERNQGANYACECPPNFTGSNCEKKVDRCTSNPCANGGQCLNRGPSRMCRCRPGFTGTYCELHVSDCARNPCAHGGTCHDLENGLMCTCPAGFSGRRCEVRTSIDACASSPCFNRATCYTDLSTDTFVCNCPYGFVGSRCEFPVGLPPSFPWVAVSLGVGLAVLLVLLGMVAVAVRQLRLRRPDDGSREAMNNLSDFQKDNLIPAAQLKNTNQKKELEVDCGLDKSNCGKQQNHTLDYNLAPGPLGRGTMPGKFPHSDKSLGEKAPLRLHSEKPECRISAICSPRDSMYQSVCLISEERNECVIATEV

One experiment addresses T1, human DLL4 extracellular domain (human, UniProt Q9NR61 27-529).
T1 construct: purified recombinant ECD; biotin-labelled or 6xHis-tagged depending on the assay; also called huDLL4 ECD; hu DLL4 ECD
Briefly: binding ELISA. Here is the method:
(§1) Plates were then washed 3 times. 100 μl/well of recombinant rat/human chimeric or recombinant human anti-DLL4 antibodies were then added to the plate (0.00164-27 nM, 4-fold serial dilution in ELISA buffer=PBST, 10% Superblock (Pierce #37515)) for 1 hour at 25° C. with shaking and then washed again 3 times. Plates were incubated with goat anti-human HRP (Pierce #31412) (1:40,000 dilution in ELISA buffer, 100 μl/well) for 1 hour at 25° C. with shaking, then washed 3 times. After the final wash, plates were incubated with 100 μl/well ELISA substrate (Sigma #T8665). The reaction was stopped after 8 minutes at 25° C. with 100 μl/well 1N HCl and the absorbance was read at 450 nm. Data were analyzed using Graphpad Prism software, and EC50 values were reported.
(§2) Purified variants were further characterized for their affinities for human, murine and cynomolgus DLL4 by binding ELISA (Example 1.2, Method 2), by Biacore (Example 1.1), and by Flow Cytometry (FACS). […] The humanized variants were then tested for their functionality with human and murine DLL4 by competition ELISA (Example 1.3) and by Notch reporter assay (Example 1.6).
On the technique in general: ELISA stands for enzyme-linked immunosorbent assay.
B1 had an EC50 of 0.07 nM.

Turning to B2, the midpoint of the response, the EC50, lay at 0.06 nM.

Regarding B3, the half-maximal effective concentration (EC50) turned out to be 0.06 nM.

Regarding B4, a half-maximal response (EC50) required 0.06 nM.

As to B5, the EC50 is 0.055 nM.

Take B6: a half-maximal effect (EC50) was put at 0.06 nM.

Take B7: the 50% effective concentration (EC50) worked out at 0.07 nM.

Another experiment addresses T2, cynomolgus monkey DLL4 extracellular domain (cynomolgus monkey).
T2 construct: extracellular domain; also called cynoDLL4 ECD; Cyno DLL4
Description: binding ELISA. Here is the method: as §1, §2
B1: the EC50 was determined as 0.15 nM.

As to B2, the response was half-maximal at 0.16 nM (EC50).

B3 had a 50% effective concentration (EC50) of 0.15 nM.

In turn, B4 had an EC50 of 0.16 nM.

As to B5, a half-maximal response (EC50) required 0.14 nM.

As for B6, the EC50 was determined as 0.12 nM.

Molecule B7 came in with a half-maximal effective concentration (EC50) of 0.13 nM.

The target in a further experiment is T3, mouse DLL4 extracellular domain (mouse, UniProt Q9JI71 27-532).
T3 construct: extracellular domain; also called muDLL4 ECD; murine DLL4
T3 sequence (Q9JI71 27-532): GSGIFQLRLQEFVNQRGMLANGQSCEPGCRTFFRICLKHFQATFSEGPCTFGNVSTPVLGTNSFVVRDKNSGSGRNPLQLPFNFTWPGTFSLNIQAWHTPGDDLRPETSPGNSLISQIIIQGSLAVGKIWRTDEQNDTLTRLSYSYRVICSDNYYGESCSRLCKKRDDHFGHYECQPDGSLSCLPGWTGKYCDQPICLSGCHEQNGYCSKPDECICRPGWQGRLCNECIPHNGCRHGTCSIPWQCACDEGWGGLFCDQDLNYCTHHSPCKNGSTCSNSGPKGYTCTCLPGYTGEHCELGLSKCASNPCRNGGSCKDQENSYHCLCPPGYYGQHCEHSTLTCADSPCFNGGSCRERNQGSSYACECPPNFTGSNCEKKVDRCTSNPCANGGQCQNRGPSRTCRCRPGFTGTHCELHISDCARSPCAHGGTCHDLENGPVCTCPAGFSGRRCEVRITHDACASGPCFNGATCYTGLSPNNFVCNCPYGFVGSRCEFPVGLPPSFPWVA
Description: binding ELISA. Here is the method:
as §1, §2
For the molecule B1, the concentration for a half-maximal effect (EC50) amounted to 0.09 nM.

On to B2, for which the response was half-maximal at 0.08 nM (EC50).

On to B3, for which the EC50 was 0.09 nM.

For B4, the concentration for a half-maximal effect (EC50) was 0.09 nM.

Regarding B5, the EC50 turned out to be 0.07 nM.

B6: the EC50 was 0.09 nM.

For the molecule B7, the EC50 worked out at 0.09 nM.

In another experiment the target is T1, human DLL4 extracellular domain. Description: capture ELISA, biotin-huDLL4 ECD.
With B8, the EC50 is 26.9 nM.

Take B9: a half-maximal response (EC50) required 5.57 nM.

For the molecule B10, the EC50 was determined as 20.6 nM.

The target of another experiment is T4, rat DLL4 extracellular domain (rat, UniProt D3ZHH1 28-530).
T4 construct: extracellular domain; also called ratDLL4 ECD
T4 sequence (D3ZHH1 28-530): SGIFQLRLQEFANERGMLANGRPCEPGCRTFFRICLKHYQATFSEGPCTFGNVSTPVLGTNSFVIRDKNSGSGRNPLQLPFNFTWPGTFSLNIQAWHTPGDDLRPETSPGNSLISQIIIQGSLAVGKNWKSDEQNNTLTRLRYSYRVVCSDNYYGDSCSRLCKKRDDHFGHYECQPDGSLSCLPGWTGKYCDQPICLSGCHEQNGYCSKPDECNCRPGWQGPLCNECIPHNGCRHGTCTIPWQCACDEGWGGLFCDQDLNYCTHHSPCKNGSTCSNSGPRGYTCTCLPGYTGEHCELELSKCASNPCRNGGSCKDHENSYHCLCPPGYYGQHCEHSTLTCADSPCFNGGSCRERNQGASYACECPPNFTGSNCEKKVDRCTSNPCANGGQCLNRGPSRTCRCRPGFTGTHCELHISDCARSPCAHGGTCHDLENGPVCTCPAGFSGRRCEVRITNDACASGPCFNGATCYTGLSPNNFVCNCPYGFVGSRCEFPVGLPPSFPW
Description: SPR (Biacore). Here is the method:
(§3) The BIACORE® surface plasmon resonance assay (Biacore, Inc., Piscataway, N.J., US) determines the affinity of antibodies with kinetic measurements of on-rate and off-rate constants. Binding of DLL4 antibodies to a purified recombinant DLL4 extracellular domain (ECD) was determined by surface plasmon resonance-based measurements with a Biacore® instrument (either a Biacore 2000, Biacore 3000, or Biacore T100; GE Healthcare, Piscataway, N.J., US) using running buffer HBS-EPB (10 mM HEPES [pH 7.4], 150 mM NaCl, 3 mM EDTA, 0.1 mg/ml BSA and 0.005% surfactant P20) at 25° C. For example, approximately 9000 RU of goat anti-human Fc specific polyclonal antibody (Thermo Fisher Scientific Inc., Rockford, Ill., US) diluted in 10 mM sodium acetate (pH 4.5) is directly immobilized across a CMS research grade biosensor chip using a standard amine coupling kit according to manufacturer's instructions and procedures at 25 μg/ml. Unreacted moieties on the biosensor surface were blocked with ethanolamine. For kinetic analysis, rate equations derived from the 1:1 Langmuir binding model were fitted simultaneously to multiple antigen injections (using global fit analysis) with the use of Scrubber 2 (BioLogic Software), Biacore Biaevaluation 4.0.1 software or Biacore T100 Evaluation software. Purified antibodies were diluted in running buffer for capture across goat anti-human Fc reaction surfaces. Antibodies to be captured as a ligand (1 μg/ml) were injected over reaction matrices at a flow rate of 10 μl/min. During the assay, all measurements were referenced against the capture surface alone (i.e., with no captured anti-DLL4 antibody). […] The equilibrium dissociation constant KD (M) of the reaction between antibodies and the target antigen was then calculated from the kinetic rate constants by the following formula: KD=Koff/Kₒₙ. Binding was recorded as a function of time and kinetic rate constants were calculated.
On the technique in general: In SPR one partner is held on a chip, and binding of the other changes the refractive index at the surface.
In turn, B11 showed a dissociation constant Kd of 410 nM, a koff of 0.0397 s⁻¹ and a kon of 98200 M⁻¹ s⁻¹.

A further experiment has as its target T3, mouse DLL4 extracellular domain. Briefly: SPR (Biacore). As for the experimental part:
as §3
As for B11, binding was put at a Kd of 1.2 nM, the koff was 0.000166 s⁻¹ and the on-rate constant (kon) is 145000 M⁻¹ s⁻¹.

A further experiment addresses human DLL4, full length, on cells (human, UniProt Q9NR61 27-685). Briefly: cell-based or functional assay.
Turning to B1, the “Reporter Assay (EC50, nM)” value was 3.73 nM.

Take B2: the “Reporter Assay (EC50, nM)” value was found to be 2.89 nM.

Regarding B3, the “Reporter Assay (EC50, nM)” value is 5.88 nM.

For B4, the “Reporter Assay (EC50, nM)” value worked out at 10.4 nM.

As to B5, the “Reporter Assay (EC50, nM)” value stood at 4.1 nM.

On to B6, for which the “Reporter Assay (EC50, nM)” value is 2.61 nM.

As to B7, the “Reporter Assay (EC50, nM)” value is 5.4 nM.

The target of a further experiment is T1, human DLL4 extracellular domain. Description: SPR (Biacore). Here is the method: as §3
B1 gave a Kd of 12 nM.

B2 displayed a dissociation constant (Kd) of 14 nM.

In turn, B3 returned a dissociation constant (Kd) of 13 nM.

The molecule B4 showed a Kd of 14 nM.

Molecule B5 yielded an equilibrium dissociation constant (Kd) of 13 nM.

Turning to B6, the Kd stood at 15 nM.

B7 displayed a dissociation constant Kd of 14 nM.

The next experiment deals with T3, mouse DLL4 extracellular domain. Description: SPR (Biacore). This is another data set of the same source. As for the experimental part: as §3
Molecule B1 had a dissociation constant Kd of 27 nM.

Regarding B2, the Kd stood at 35 nM.

B3 yielded a Kd of 35 nM.

B4 showed a dissociation constant (Kd) of 37 nM.

As to B5, the Kd is 28 nM.

In turn, B6 came in with a Kd of 39 nM.

Consider B7, for which binding was put at a Kd of 37 nM.

A further experiment concerns the target T1, human DLL4 extracellular domain. Description: SPR (Biacore). This is another data set of the same source. Here is the method: as §3
B11 had a dissociation constant (Kd) of 1 nM, a koff of 0.000134 s⁻¹ and a kon of 130000 M⁻¹ s⁻¹.

For another experiment, the target named is T2, cynomolgus monkey DLL4 extracellular …. Description: SPR (Biacore). As for the experimental part:
as §3
In the case of B11, binding was put at a Kd of 1.5 nM, the koff came to 0.000178 s⁻¹ and the on-rate constant (kon) amounted to 117000 M⁻¹ s⁻¹.

For the next experiment, the target named is T1, human DLL4 extracellular domain. Description: competition ELISA vs Notch-1. As for the experimental part: (§4) Plates were then washed 3 times with wash buffer (PBS, 0.05% Tween-20) and blocked with 200 μl/well blocking buffer (D-PBS, 1% BSA, 1 mM CaCl₂, 0.05% Tween-20) for 1 hour at 25° C. While blocking, biotin labeled DLL4 extracellular domain (14 nM) was mixed with antibody (30 pM-66 nM, 3-fold serial dilution in blocking buffer) for 1 hour at 25° C. with shaking. Assay plates were washed after blocking, and incubated with DLL4/antibody mixtures (100 μl/well, 1 hour at 25° C. with shaking). Plates were washed again and 100 μl/well streptavidin conjugated with HRP (Fitzgerald #65R-S104PHRPx, diluted 1:5,000 in blocking buffer) was added for 1 hour at 25° C. with shaking. After a final wash, plates were developed using 100 μl/well substrate (TMB Sigma #T8665), and the reaction was stopped using 100 μl/well 1N HCl, and the absorbance was read at 450 nm. Data were analyzed using Graphpad Prism software and IC₅₀ values were reported as the concentration of antibody to achieve 50% reduction of DLL4 bound to Notch1.
as §2
In the case of B1, the IC50 was 0.4 nM.

Molecule B2 displayed a half-inhibitory concentration (IC50) of 0.4 nM.

Take B3: the 50% inhibitory concentration (IC50) turned out to be 0.35 nM.

The molecule B4 yielded a concentration for half-maximal inhibition (IC50) of 0.3 nM.

B5 came in with a concentration for half-maximal inhibition (IC50) of 0.25 nM.

Molecule B6 registered an IC50 of 0.3 nM.

On to B7, for which the IC50 stood at 0.2 nM.

For another experiment, the target named is T3, mouse DLL4 extracellular domain. Description: competition ELISA vs Notch-1. As for the experimental part: as §4, §2
Molecule B1 showed an IC50 of 0.8 nM.

As to B2, the IC50 was determined as 0.9 nM.

B3 had an IC50 of 0.9 nM.

In the case of B4, the IC50 worked out at 1 nM.

Regarding B5, the 50% inhibitory concentration (IC50) stood at 0.7 nM.

Turning to B6, the IC50 came to 0.7 nM.

B7 showed an IC50 of 0.7 nM.
